Reference: publication PMC11529722 (Science Advances, 2024)

Biological target: valosin-containing protein (VCP), histidine-tagged (UniProt P55072 1-806)
Experiment: BLI

valosin-containing protein (VCP), histidine-tagged, sequence (P55072 whole entry): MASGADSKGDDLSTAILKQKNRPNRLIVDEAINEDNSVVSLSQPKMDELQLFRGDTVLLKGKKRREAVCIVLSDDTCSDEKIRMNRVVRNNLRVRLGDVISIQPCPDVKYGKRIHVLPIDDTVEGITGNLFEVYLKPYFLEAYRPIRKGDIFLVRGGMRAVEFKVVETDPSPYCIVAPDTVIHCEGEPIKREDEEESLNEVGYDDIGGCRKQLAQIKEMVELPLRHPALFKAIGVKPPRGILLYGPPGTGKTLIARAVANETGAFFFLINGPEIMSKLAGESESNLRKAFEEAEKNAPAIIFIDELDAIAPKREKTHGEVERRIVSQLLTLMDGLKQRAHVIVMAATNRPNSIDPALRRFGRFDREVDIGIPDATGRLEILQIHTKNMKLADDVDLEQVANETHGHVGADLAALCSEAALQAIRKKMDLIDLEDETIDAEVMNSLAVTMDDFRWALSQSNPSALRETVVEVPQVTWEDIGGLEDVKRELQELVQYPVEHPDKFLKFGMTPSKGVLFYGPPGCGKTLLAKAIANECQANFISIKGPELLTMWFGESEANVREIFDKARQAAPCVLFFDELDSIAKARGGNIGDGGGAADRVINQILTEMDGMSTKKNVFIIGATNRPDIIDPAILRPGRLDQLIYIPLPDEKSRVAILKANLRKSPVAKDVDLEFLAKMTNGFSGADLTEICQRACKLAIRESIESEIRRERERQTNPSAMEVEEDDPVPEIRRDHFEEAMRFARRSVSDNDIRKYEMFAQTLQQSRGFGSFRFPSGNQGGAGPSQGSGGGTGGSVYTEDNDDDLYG

B1: P1, protein-like polymer (PLP) with HVLVMSATRR peptide side chains (other)
peptide: HVLVMSATRR
modifications: N terminus conjugated to N-(hexanoic acid)-exo-5-norbornene-2,3-dicarboximide, polymerised through the norbornene (ROMP) into the polymer backbone
Q: How did the Kd turn out when B1 was run?
A: The Kd was 0.092 µM.

Q: What about the koff of the same binder?
A: Its koff is 2.5e-05 s⁻¹.
